We go through five molecules from patent US20250137008A1 (UNIVERSITY OF GLASGOW, published 2025).

B1: full-length GORK channel (GORK-Cub bait fusion) (other)
chain: MGRLRRRQEIIDHEEEESNDDVSSRRGKLSLAETFRWLDSSEHRRIETDGHNDYKYIIHPKNRWYKAWEMFILVWAIYSSLFTPMEFGFFRGLPERLFVLDIVGQIAFLVDIVLQFFVAYRDTQSYRTVYKPTRIAFRYLKSHFLMDFIGCFPWDLIYKASGKHELVRYLLWIRLFRVRKVVEFFQRLEKDTRINYLFTRILKLLFVEVYCTHTAACIFYYLATTLPPEQEGYTWIGSLKLGDYSYENFREIDLWKRYTTALYFAIVTMATVGYGDIHAVNLREMIFVMIYVSFDMVLGAYLIGNVTALIVKGSNTERFRDKMNDLISFMNRKKLGRDLRSQITGHVRLQYDSHYTDTVMLQDIPASIRAKIAQLLYLPYIKKVPLFKGCSTEFINQIVIRLHEEYFLPGEVITEQGNVVDHLYFVCEGLLEALVTKTDGSEESVTLLGPHTSFGDISIICNISQPFTVRVCELCHLLRLDKQSFSNILEIYFHDGRTILNNIMEEKESNDRIKKLESDIVIHIGKQEAELALKVNSAAFQGDFYQLKSLIRSGADPNKTDYDGRSPLHLAACRGYEDITLFLIQEGVDVNLKDKFGHTPLFEAVKAGQEGVIGLLVKEGASFNLEDSGNFLCTTVAKGDSDFLKRLLSSGMNPNSEDYDHRTPLHVAASEGLFLMAKMLVEAGASVISKDRWGNSPLDEARLCGNKKLIKLLEDVKNAQSSIYPSSLRELQEERIERRKCTVFPFHPQEAKEERSRKHGVVVWVPSNLEKLIVTAAKELGLSDGASFVLLSEDQGRITDIDMISDGHKLYMISDTTDQT
notes: Full-length channel expressed in yeast as a Cub bait fusion (mbSUS) and in vivo as an rBiFC partner; also called full-length GORK channel Y-Cub fusion; Guard cell Outward Rectifying Potassium (K+) channel

Data set [1] concerns the target T1, KAT1 voltage sensor domain (kVSD) (UniProt Q39128 1-200, limits assumed).
T1 construct: domain: voltage sensor domain (VSD); Nub-X prey in mbSUS; rBiFC partner; also called KAT1 VSD; VSD of KAT1
T1 sequence (looked up): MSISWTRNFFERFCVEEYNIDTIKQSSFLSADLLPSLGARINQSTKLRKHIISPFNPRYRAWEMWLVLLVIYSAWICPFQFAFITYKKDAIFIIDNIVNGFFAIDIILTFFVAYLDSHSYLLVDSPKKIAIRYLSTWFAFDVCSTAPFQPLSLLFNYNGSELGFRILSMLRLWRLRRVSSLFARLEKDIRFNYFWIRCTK
In words: mbSUS, GORK-Cub bait.

For another data set, the target named is T2, full-length KAT1 (UniProt Q39128 1-677, limits assumed).
T2 construct: whole, on cells; Nub-X prey in mbSUS in yeast
The experiment in a line: mbSUS, GORK-Cub bait.

Data set [2] concerns the target B1. In words: rBiFC in vivo, confocal imaging.
Data set [3] deals with B1. The experiment in a line: mbSUS, GORK-Cub bait.
Data set [4] concerns the molecule itself. In words: gel filtration of soluble N-termini (self-association).

For the molecule B1, the binding result (in data set [1]; in the data set with full-length KAT1) was “no binding” throughout.

B2: gVSD^NP (other)
chain: MGRLRRRQEIIDHEEEESNDDVSSRRGKLSLAKTFRWLKSSKKRRIKTKGKNKYKYIIKPKNRWYKAWEMFILVWAIYSSLFTPMEFGFFRGLPERLFVLDIVGQIAFLVDIVLQFFVAYRDTQTYRTVYKPTRIAFRYLKSHFLMDFIGCFPWDLIYKASGKHELVRYLLWIRLFRVRKVVEFFQRLEKDTRINYLFTRILK
notes: All negatively-charged amino acids (Asp, Glu) of the N-terminal charged domains replaced with Lys
As for B2, in data set [2], the binding result is reported as “no binding”.

B3: gVSD^PN (other)
chain: MGRLRRRQEIIDHEEEESNDDVSSDDGDLSLAETFDWLDSSEDDDIETDGDNDYDYIIDPKNRWYKAWEMFILVWAIYSSLFTPMEFGFFRGLPERLFVLDIVGQIAFLVDIVLQFFVAYRDTQTYRTVYKPTRIAFRYLKSHFLMDFIGCFPWDLIYKASGKHELVRYLLWIRLFRVRKVVEFFQRLEKDTRINYLFTRILK
notes: All positively-charged residues of the N-terminal charged domains replaced with negatively-charged residues
As for B3, the binding result in data set [3] is on record as “no binding”.

B4: gVSD^NP N-terminus (soluble) (other)
chain: MGRLRRRQEIIDHEEEESNDDVSSRRGKLSLAKTFRWLKSSKKRRIKTKGKNKYKYIIKPKNRWYKAWE
notes: also called gVSDNP N-termini
Regarding B4, the binding result in data set [4] is reported as “no binding”.

B5: kVSD N-terminus (soluble) (other, UniProt Q39128 1-63, looked up)
chain: MSISWTRNFFERFCVEEYNIDTIKQSSFLSADLLPSLGARINQSTKLRKHIISPFNPRYRAWE
notes: domain: cytosolic N-terminus; Gel filtration construct; also called kVSD N-termini; KAT1 N-terminus
Regarding B5, the binding result in data set [4] is reported as “no binding”.
